Publication PMC10154249, “Unique progerin C-terminal peptide ameliorates Hutchinson–Gilford progeria syndrome phenotype by rescuing BUBR1” (Nature Aging, 2023)

Experiments:
[1] = system: BUBR1 kinetochore localization in H1299 cells; experiment: Immunofluorescence, abnormal localization of BUBR1 in H1299 cells; format: cell-based; conditions: Fig. 3h, H1299, Vector 7, 11, 14, P=0.0008 vs Vector
Method: (§1) Immunofluorescence was performed as described previously. Cells were plated on cover slips in 12-well plates, left overnight before the treatment. Cells were fixed in 1% formaldehyde in culture medium for 10 min at 37 °C and permeabilized with 0.2% Triton X-100 in PBS for 10 min at room temperature. Cells were washed twice in PBS and blocked for 1 h with 5% BSA in PBS and then incubated with primary antibodies at 4 °C overnight, washed three times in PBS and incubated with secondary antibodies for 1 h at room temperature. Cell nuclei were counterstained with a 500 nM concentration of 4,6-diamidino-2-phenylindole (DAPI) (Sigma). Images were acquired by a fluorescence microscope (OLYMPUS FV-1000, Carl Zeiss LSM880 or Leica DMi8) and analyzed with software NIS-Elements AR v.5.0.1 (Nikon), FLUOVIEW v.4.2b (OLYMPUS), ZEN v.2.3 SP1 (Carl Zeiss) and Leica Application Suite X v.3.6.0.24 (Leica). Cells were quantified by investigators who were blinded to the identity of the analyzed cell.

IMR90 cells [2] = experiment: SA-β-gal staining of IMR90 cells (progerin, BUBR1, shBUBR1); format: cell-based, human; conditions: Fig.1i
Method: SA-β-gal staining was performed as previously described. Cells were fixed in 0.5% glutaraldehyde for 15 min at room temperature, washed three times with PBS (pH 6.0) containing 1 mM MgCl2 and exposed overnight 37 °C to containing 1 mg ml^–1 5-bromo-4-chloro-3-indolyl-β-D-galactopyranoside (MCE, catalog no. HY-15934), 0.12 mM potassium ferrocyanide (Sigma, catalog no. P3289), 0.12 mM potassium ferricyanide (Sigma, catalog no. P8131) and 1 mM MgCl2 PBS buffer (pH 6.0). Cells were washed three times with H2O and observed under a microscope (OLYMPUS CKX53). SA-β-gal positive cells were quantified by investigators who were blinded to the identity of the analyzed cell.

PTBP1–BUBR1 mRNA 3′-UTR = experiment: RIP assay of PTBP1 and BUBR1 mRNA 3′-UTR in HEK-293T cells; format: cell-based; conditions: Fig. 4n, PTBP1+progerin, P=0.0002 vs PTBP1
Method: RIP and RNA pulldown assays were performed as previously described. The RIP experiment was carried out using the EZ-Magna RIP Kit (Millipore, catalog no. 17-701). The coprecipitated RNAs were extracted through Trizol reagent and detected by RT-PCR. The primer sequences for PCR, synthesized by Comate Bioscience, were as follows:
BUBR1-3′UTR_fwd (5′-[…]-3′) and BUBR1-3′UTR_rev (5′- […]-3′).

[3] = system: IMR90 and HGADFN003 cells; experiment: Metaphase chromosome spread assay, aneuploid cells; format: cell-based, human; conditions: Fig.1p, IMR90, Vector 6, 5, 8
Method: For the metaphase chromosome spread assay, 1.5 × 10^6 cells were seeded in a 6 cm dish and incubated for 24 h with fresh medium. Then, colchicine was added to a final concentration of 0.2 μg ml^–1 and the cells were incubated at 37 °C for 2 h. After digestion, we collected and rinsed the cells with PBS. The cells were centrifuged at 160g for 10 min. Then, 1 M KCl was added to a final concentration of 0.075 mol l^–1 and the samples were incubated at 37 °C for 20 min. The cells were centrifuged, and the supernatant aspirated. The pellet was resuspended, and 1 ml methanol:glacial acetic acid (3:1) solution was added. The sample was rested at room temperature for 10 min. Then, the cells were centrifuged at 160g for 10 min. The supernatant was aspirated, and the pellet resuspended in 1 ml fixative for 30 min. The cells were centrifuged and the pellet was suspended in 1 ml fixative again for 30 min. The cells were centrifuged at 160g for 10 min and the supernatant aspirated. The pellet was then resuspended in a small volume of fixative (typically less than 500 μl) until the cell suspension appeared lightly milky. A small quantity of the cell suspension was held vertically in a pipette with the end about 10 cm above the slide. A single drop was released from this height onto the slide and allowed to air dry. The cells were then incubated with 500 nM of DAPI (Invitrogen) for 10 min. Slides were examined with an Olympus BX53 fluorescence microscope and the images were captured by using the Olympus IPP v.7.0 software. Aneuploid cells were quantified by investigators who were blinded to the identity of the analyzed cell.

IMR90 cells [4] = experiment: Ki67 immunofluorescence of IMR90 cells; format: cell-based, human; conditions: Fig.1k, IMR90, Vector 67, 75, 60, P vs Vector: BUBR1 0.803, progerin 0.0018
Method: as §1

BUBR1 = BUBR1 nuclear membrane localization in IMR90, HGADFN003 or H1299 cells; format: cell-based, human; conditions: Fig. 2c
Method: as §1

B1: progerin (protein)
chain: METPSQRRATRSGAQASSTPLSPTRITRLQEKEDLQELNDRLAVYIDRVRSLETENAGLRLRITESEEVVSREVSGIKAAYEAELGDARKTLDSVAKERARLQLELSKVREEFKELKARNTKKEGDLIAAQARLKDLEALLNSKEAALSTALSEKRTLEGELHDLRGQVAKLEAALGEAKKQLQDEMLRRVDAENRLQTMKEELDFQKNIYSEELRETKRRHETRLVEIDNGKQREFESRLADALQELRAQHEDQVEQYKKELEKTYSAKLDNARQSAERNSNLVGAAHEELQQSRIRIDSLSAQLSQLQKQLAAKEAKLRDLEDSLARERDTSRRLLAEKEREMAEMRARMQQQLDEYQELLDIKLALDMEIHAYRKLLEGEEERLRLSPSPTSQRSRGRASSHSSQTQGGGSVTKKRKLESTESRSSFSQHARTSGRVAVEEVDEEGKFVRLRNKSNEDQSMGNWQIKRQNGDDPLLTYRFPPKFTLKAGQVVTIWAAGAGATHSPPTDLVWKAQNTWGCGNSLRTALINSTGEEVAMRKLVRSVTVVEDDEDEDGDDLLHHHHGSHCSSSGDPAEYNLRSRTVLCGTCGQPADKASASGSGAQSPQNCSIM
modifications: left off: GST, end not stated, kept
[1]; replicate 1
  Relative percentage of the number of abnormal localization cells of BUBR1: 38%
[1]; replicate 2
  Relative percentage of the number of abnormal localization cells of BUBR1: 37%
[1]; replicate 3
  Relative percentage of the number of abnormal localization cells of BUBR1: 32%
IMR90 cells [2]; Vector 2, 1, 2, P vs Vector: BUBR1 0.2302, progerin 0.0003, replicate 1
  Relative percentage of SA-β-gal positive cells: 40%
IMR90 cells [2]; Vector 2, 1, 2, P vs Vector: BUBR1 0.2302, progerin 0.0003, replicate 2
  Relative percentage of SA-β-gal positive cells: 50%
IMR90 cells [2]; Vector 2, 1, 2, P vs Vector: BUBR1 0.2302, progerin 0.0003, replicate 3
  Relative percentage of SA-β-gal positive cells: 39%
PTBP1–BUBR1 mRNA 3′-UTR; replicate 1
  PTBP1 enrichment on BUBR1-3'UTR (2-ΔΔCt): 8.488
PTBP1–BUBR1 mRNA 3′-UTR; replicate 2
  PTBP1 enrichment on BUBR1-3'UTR (2-ΔΔCt): 7.488
PTBP1–BUBR1 mRNA 3′-UTR; replicate 3
  PTBP1 enrichment on BUBR1-3'UTR (2-ΔΔCt): 7.699
[3]; replicate 1
  Relative percentage of aneuploid cells: 42%
[3]; replicate 2
  Relative percentage of aneuploid cells: 38%
[3]; replicate 3
  Relative percentage of aneuploid cells: 46%
IMR90 cells [4]; replicate 1
  Relative percentage of Ki67 positive cells: 27%
IMR90 cells [4]; replicate 2
  Relative percentage of Ki67 positive cells: 31%
IMR90 cells [4]; replicate 3
  Relative percentage of Ki67 positive cells: 35%

B2: mVenus-progerin (protein)
chain: B1 chain
modifications: left off: mVenus, end not stated, kept
BUBR1; mVenus 1, 2, 2, P<0.0001, replicate 1
  BUBR1 nuclear membrane localization of injected cells: 97%
BUBR1; mVenus 1, 2, 2, P<0.0001, replicate 2
  BUBR1 nuclear membrane localization of injected cells: 95%
BUBR1; mVenus 1, 2, 2, P<0.0001, replicate 3
  BUBR1 nuclear membrane localization of injected cells: 94%
